In article PMC10191858, “DNA segment capture by Smc5/6 holocomplexes” (Nature Structural & Molecular Biology, 2023):

Molecular target: T1, Smc5(G1054C), Smc5 with the engineered cysteine of the Smc5–Nse4 interface (S. cerevisiae, UniProt Q08204 1-1093, G1054C)
T1 construct: Smc5, S. cerevisiae, subunit of the Smc5/6 hexamer; engineered cysteine G1054C for BMOE cross-linking to Nse4; Stood in the assay as a subunit of the purified hexamer (Smc5, Smc6, Nse1-4)
T1 sequence (looked up): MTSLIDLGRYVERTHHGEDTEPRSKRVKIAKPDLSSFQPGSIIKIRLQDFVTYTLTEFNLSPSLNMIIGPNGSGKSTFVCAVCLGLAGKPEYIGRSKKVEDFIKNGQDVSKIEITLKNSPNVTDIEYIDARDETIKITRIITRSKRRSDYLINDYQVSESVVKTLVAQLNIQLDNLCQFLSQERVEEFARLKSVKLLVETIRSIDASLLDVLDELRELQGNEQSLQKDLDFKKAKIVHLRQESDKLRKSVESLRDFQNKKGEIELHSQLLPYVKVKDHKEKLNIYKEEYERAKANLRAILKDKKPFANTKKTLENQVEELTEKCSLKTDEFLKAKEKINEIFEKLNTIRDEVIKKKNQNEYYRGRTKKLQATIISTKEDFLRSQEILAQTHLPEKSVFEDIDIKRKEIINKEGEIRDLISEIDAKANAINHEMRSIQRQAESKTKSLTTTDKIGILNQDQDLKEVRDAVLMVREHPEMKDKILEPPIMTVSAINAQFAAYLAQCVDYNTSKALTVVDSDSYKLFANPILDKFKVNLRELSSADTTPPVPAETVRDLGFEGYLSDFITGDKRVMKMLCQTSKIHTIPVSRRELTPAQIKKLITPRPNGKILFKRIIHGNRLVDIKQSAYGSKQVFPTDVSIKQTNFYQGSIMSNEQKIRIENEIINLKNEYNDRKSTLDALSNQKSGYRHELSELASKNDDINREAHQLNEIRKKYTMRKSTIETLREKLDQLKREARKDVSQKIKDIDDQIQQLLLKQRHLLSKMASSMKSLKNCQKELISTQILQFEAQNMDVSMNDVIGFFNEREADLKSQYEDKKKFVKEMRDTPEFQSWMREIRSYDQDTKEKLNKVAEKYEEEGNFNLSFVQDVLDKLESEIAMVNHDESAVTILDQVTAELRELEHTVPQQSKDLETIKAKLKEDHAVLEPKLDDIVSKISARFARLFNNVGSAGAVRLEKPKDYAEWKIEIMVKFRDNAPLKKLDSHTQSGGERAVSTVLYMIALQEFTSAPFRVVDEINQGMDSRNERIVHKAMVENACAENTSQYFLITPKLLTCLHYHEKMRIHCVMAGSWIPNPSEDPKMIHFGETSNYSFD
Experiment: cross-linking; site-specific BMOE cross-linking (1 mM, 45 s, stopped with 10 mM DTT) of engineered cysteine pairs in purified Smc5/6 hexamers at 0.5 uM; 10 mM Hepes-KOH pH 7.5, 150 mM KOAc, 2 mM MgCl2, 20% glycerol, RT; with or without Nse5/6 dimer (0.625 uM), 2 mM ATP, 5 nM plasmid DNA (25 kbp); SDS-PAGE and Coomassie staining, bands quantified
Conditions: both partners purified

- binding result: binds
B1: Nse5/6 dimer (loader) (complex, S. cerevisiae)
chain 1: MDGALINSVLYVSPRNGAHYFVELTEKHLLAFEMLNSMCLLENYDHVLLFLECQFGKSHNLAVIPFDIILVLFTLSTLSEYYKEPILRANDPYNTSRETLSRRALKLLQKYLAILKEFDSEQYNLYDLELLRCQFFLAIDTLTPKKQKWGFDRFRRTKSESGVTYRQNASVDPELDQAKTFKNPYRSYISCLEQRNTILGNRLLNLKLNEPGEFINMILWTLSNSLQESTPLFLSSHEIWMPLLEILIDLFSCRQDYFIQHEVAQNVSKSLFVQRLSESPLAVFFESLNTRNFANRFSEYVFLNCDYKLPSDNYATPVHPVYNGENTIVDTYIPTIKCSPLYKSQKSLALRRKLIGSCFKLLLRVPDGHRLITPRIVADDVIQGISRTLASFNDILQFKKFFMTENLSQESYFIPLLAEGTLSEILKDTQECVVILTLVENLSDGVSFCNEVIGLVKSKCFAFTEQCSQASYEEAVLNIEKCDVCLLVLLRYLLHLIGTEAILDAKEQLEMLHAIEKNDSGRRQWAKALNLGNDPPLLYPIVSQMFGVHDKSVIIE
chain 2: MGSVNSSPNEEFETVPDSQISGFDSPLIPTSVGSYFRDDDDDEKVHPNFISDPENDSLNSDEEFSSLENSDLNLSGAKAESGDDFDPILKRTIISKRKAPSNNEDEEIVKTPRKLVNYVPLKIFNLGDSFDDTITTTVAKLQDLKKEILDSPRSNKSIVITSNTVAKSELQKSIKFSGSIPEIYLDVVTKETISDKYKDWHFISKNCHYEQLMDLEMKDTAYSFLFGSSRSQGKVPEFVHLKCPSITNLLVLFGVNQEKCNSLKINYEKKENSRYDNLCTIFPVNKMLKFLMYFYSDDDNDDVREFFLKAFICLILDRKVFNAMESDHRLCFKVLELFNEAHFINSYFEIVDKNDFFLHYRLLQIFPHLQSALLRRRFSEKQGRTETIQQNIIKEFNEFFDCKNYKNLLYFILTMYGSKFIPFGPKCQVTEYFKDCILDISNETTNDVEISILKGILNLFSKIR
notes: Nse5, S. cerevisiae; a native cysteine of it cross-links off-target to Smc5(G1054C); Nse6, S. cerevisiae; also called Nse5/6 subcomplex; Nse5/6 complex
